# Source: the nanobody polyreactivity screen of Harvey et al. (2022)
# Experiment: yeast display, Sf9 membrane polyspecificity reagent, FACS + sequencing; frameworks hold sequencing errors
# In short: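 Sorting gates, low and high (top ~1%), were placed on anti-HA fluorescence to track expression and on streptavidin fluorescence to track reagent binding. A clone's polyreactivity label is taken from the gate it came out of. The reagent was 10% biotinylated, detergent-solubilized Sf9 membrane, applied for 1 hour at 4 °C to galactose-induced yeast display cells.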
row,Sequence,polyreactivity (PSR sort gate)
1,QVQLVESGGGLVQAGGSLRLSCAASGSTFTGNDMGWYRQAPGKERELVASIRRGDRTYYADSVKGRFTISRDNAKNTVYLQMNSLKREDTAVYYCAKPVWWRVYRHGGRFGYWGQGTQVTVSS,low polyreactivity
2,QVQLVESGGGLVQAGGSLRLSCAASGIIFQRNDMGWYRQAPGKERELVANIRDGGITYADSVKGRFTISRDNAKNTVYLQMNRLKPEDTAVYYCARDDTSPGYGDQSSNAAYYYWGQGTQVTVSS,low polyreactivity
3,QVHLVDSGGGLVQAGGILRLSCAASGRIFVNTMGCYRQAPGKEMELVAAITRSGVSTYYADSVKGRFTISRDNAKNTVYLQMNSLKPEDTAVYYCAAREWSGPKIYPPYRYNSWGQGTQVTVSS,high polyreactivity
4,QVQLVESGGGLVQAGGSLRLSCAASGFTFSTYAMGWYRQAPGKERELVSAISFSGGSTYYADSVKGRFTISRDNAKNTVYLQMNSLKPEDTAVYYCARAYTKYFEIYFIYALLYGHWGQGTQVTVSS,low polyreactivity
5,QVQLVESGGGLVQAGGSLRLICAASRRTYYSNAMGWYRQAPGKERELVAASTSTDDSTYYADSVKGRFTISRDNAKNTVYLQMNSLKPEDTAVYYCNTDGLIAIRGLWWVEYDYWGQGTQVTVSS,low polyreactivity
6,QVQLVESGGGLVQAGGSLRLSCAASGSTFPGYAMGWYRQAPGKERELVAAGGSTYYADSVKGRFTISRDNAKNTVYLQMNSLKPEDTAVYYCAATWGSVQKGTYYYWGQGTQVTVSS,low polyreactivity
7,QVQLVESGGGLVQAGGSLRLSCASSGRIFGSYAMGWYRQAPGKERELVAGISKSGTSTYYADSVKGRFTISRDNAKNTVYLLMNSLKPEDTADYYCAKRFDSTKAKYYYWGQGTQGTVSS,high polyreactivity
8,QVQLVESGGGLVQAGGRLRLSCAASGSTFLNYAMGWYRQAPGKQRELVSSIDSSDGRTYYADSVKGRFTISRDNAKNTVYLQMNSLKPEDTEVYYCAKDSYAVELRPYSKLSSRADGYWGQGTQVTVSS,low polyreactivity
9,QVQLVESGGGLVQAGGSLRLSCAASGITFSGNAMGWYRQAPGKERELVAAISRNGGRTYYADSVKGRFTISRDNAKNTVYLQMNSLKPEDTAVYYCAKDAYGYSRVSAWYYTYDYWGQGTQVTVSS,high polyreactivity
10,QVQLVESGGGLVQAGGSLRLSCAASGRTFAGYAMGWYRQPPGKERELVAAITSSGGTTYYADSVKGRFTISRDNAKNTVYLQMNILKPEDTAVYSCAADLTWIYRWQTYNYDYWGQGTQVTVSS,high polyreactivity
11,QVQLVESGGGLVQAGGSLRLSCAASGSTFSKYAMGWYRQAPGKERELVAAITRTTGRTYYADSVKGRFSISRDNAKNTVYLHMNSLKPEDTAVDYCAARSPYYRAYKYDYWGQGTQVTVSS,high polyreactivity
12,QVQLVESGGGLVQAGGSLRLSCAASGRTFTGNAMGWYRQATGKERELVAAINSGGGRTFYADSVKGRFTISRDNAKNTVYLQMTSLKPEDTAVYYCNAVKYRSYYWGQGTQVTVSS,high polyreactivity
13,QVQLVESGGGLVQAGGSLRLSCAASGRIFLGYAMGWYRQAPGKEREFVAAITSSGGSTYYADSVKGRFTISRDNAKNTVYLLMNSLKPEDTAVYYCAARVTKLRTSSLRGYWGQGTQVTVSS,high polyreactivity
14,QVQLVESGVGLVQAGGSLRLSCAASGITFAGNAMGWYRQAPGKERELVATITSDGNTNYADSVKGRFTISRDNAKNTVYLQMNSLKPEDTAVYYCNAEVIVGTDEYDYWGQGTQVTVSS,low polyreactivity
15,QVQLVESGGGLVQAGGSLRLSCAASGGIFTAYPMGWSRQAPGKERELVATITRGGSTNYADSVKGRFTISRDNAKNTVYLQMNSLKPEDTAVYYCNARYSWRSKWWTEDDYWGQGTQVTVSS,high polyreactivity
16,QVQLVESGGGLVQAGGSLRLSCADSARTFYTNAKGWYRQAPGKERELVAAITGSDGNTYYADSVKGRFTISRDNAKNTVYLQMISLKPEDTAVYYGYDYWVQGTQVTVSS,low polyreactivity
17,QVQLVESGGGLVQAGGSLRLSCAASGSTFASNAMGWYRQAPGKDRELVADLSSGGSTYADSVKGRFTISRDNAKNTVYLQMNSLKPVDTAVYYCNNRSYGFLRGPRKTIKYYRYGYWGQGTQVTVSS,high polyreactivity
18,QVHLVESGGGLVQAGGSLRLSCAASGRTFPGYAMGWYRQAPGKERELVATITGNAGSTYYADSVKGRFTISRDNAKNTVYLQMNSLKPEDTAVYYCAAGRRRPYVRAYRGTDYWGQGTQVTVSS,low polyreactivity
19,QVQLVESGGGLVQAGGSLRLSCAASGFTFARYAMGWYRQAPGKERELVAAISSRGGRTYYADSVKGRFTISRDNAKNTVYLQMNSLKPEDTAVYYCNAGYAHTYDYWGQGTQVTVSS,high polyreactivity
20,QVQLVESGGGLVQAGGSLRLSCAASGSIFRANAMGWYRQAPGKEREMVAAISYSGGSTYYADSVKGRFSISRDNAKNTVYLLMNSLKPEDTAVYYCAAEFLYASVYYSYWGQGTQVTVSS,high polyreactivity
21,QVQLVESGGGLVQAGGSLRLSCAASGRIFNGYTMGWYRQAPGKEREFVATISRSGGSTYYADSVKGRFTISRDNAKNTVYLQMNSLKPEDTAVYYCAKTYPAKWEYDYWGQGTQVTVSS,low polyreactivity
22,QVKLVESGGGLVQAGGSLRLSCAASGRTFYRNTMGWYRQAPGKERELVAAITRSGGSTYYADSVKGRFTISRDNAKNTVYLQMNRLKPEDTAVYYCARPKIHGETRSYGYGYWGQGTQVTVSS,high polyreactivity

row,Sequence,polyreactivity (PSR sort gate)
1,QVQLVESGGGLVQAGGRLRISCAASGTIFAYALGWYRPAPGKERELVAGISRRGGSTYYADSVKGRFTISRDNAKKTVYLQMKSLKPEDTAVYYCAADYYTLYPVYIKRYGYWGQGTQVTVSA,high polyreactivity
2,QVQLVESGGGLVQAGGSLRISSAASGRIFTPYVMGWYRQAPGKERELVADINLSGDSTSYADSVKGRFTITRDNAKNTVYLQMNSLKPEDTAVYYCNADSYIYVGNDQYDYWGQGTQVTVSS,low polyreactivity
3,QVQLVESGGGLVQAGGSLRLSCAPSGSTSYLYAMGWYRQAPGKERELVATITTRSGSTYYADSVKGRFTISRDNAKNTVYIQMNSLKPEDTAVYYCAARWISVWSEGAEHDYWGQGTQVTVSS,low polyreactivity
4,QVQLVESGRGLVQAGGSLRLSCAASGRISVFNAMGWYRQAPGKERELVAAISWSGGSTYYADSVKGRFTISRDNAKNTVYLQMNSLKPEDTAVYYCAARGHYQYYWGQGTQVTVSS,low polyreactivity
5,QVQLVESGGGLVQAGGSLRLSCAASGSIFRPNVMGWYRQEPGKERELVATISWSGGSTYYADSVKGRFTISRDNASNTVYLQMNSLKPEDTAVYYCAALWPYGYWGQGTEVTVSS,low polyreactivity
6,QVQLVESGGGLVQAGGSLRLSCAASGSTFITYAMGWYRQAPGKERELVAAISWSGVGTYYADSVKGRFTISRDNAKNTVYLQMNSLKPEDTAVYYCAVDRIYYYTYGVYYWGQGTQVTVSS,high polyreactivity
7,QVQLVESAGGLVQAGGSLRLSCAPSGSTFNYYAMGWYRQAPGKESELGAAIDWSGGSTYYADSVKGRFTISRDNAKNTVYLQMNSLKPDDTAVYYCAARTYDYSYGSFDYWGQGTQVTVSS,low polyreactivity
8,QVKLVESGGGLVQAGGSLRLSCSASGFTFRFYAMGWYIQAPGKERELVASITRSGGSTYYADSVKGRFTISRDNAKNTVYLQMNSLKPEDTAVYYCAAYRCYVSYKEMYYLGQGTQVTVSS,high polyreactivity
9,QVQLVESGGGLVQAGGSLRLICAASGSTYSYYAMAWYRQAPGKERELVAAINSSGGSTYYADSEKGRFTISRDKAKNTVYLQMNSLKPEDTAVYYGAAARRRTGVRMDYWGQGTQVTVSS,high polyreactivity
10,QVQLVESGGGLVQAGGSLRLSCAASGSTFSPYAMGWYRQAPGKERELVADISWPGGTTYYADSVKGRFTISRDNAKNTVYLQMNSLKPEVTAVYYCAVTYWDYTFQITYEYWGQGTQVTVSS,low polyreactivity
11,QVQLVESGGGLVQAGGSLRLSCAASGLTLRNSAMGWYRQAPGKERELVAAITTGGGRTYYADSVKGRFTISRDNAKNTVYLQMNSLKPEDTAVYYCAKKPSSARYVTIGFDYWGQGTQVTVSS,low polyreactivity
12,QVQLVESGGGLVQGGGSLSLSCAASGSNFWRYAMGWYRQAPGKEMELVAVISDRGCITYYADSVKGRFTISRDNAKNTVYLQMNSLKPEDTAVYYCNAVDSDRSDPSEYDYWGQGTQVTLSS,low polyreactivity
13,QVQLVESGGGLVQAGGSLRLSCAASGSIFKGNAMGWYRQAPGKERDLVAAISRSGGSTYYADSVKGRFTISRDNAKNTVYLQMNSLKPEDTAVYYCNAVRRNTVRSKGRYDYWGQGTQVTVSS,high polyreactivity
14,QVQLVESGGGLVQAGGSLRLTCAASGSIFSFYAMGWYRQAPGKERELVAAITQSDSSTYYADSVKGRFTISRDNAKNTVYLQMNSLKPVDTAVYYCAKDYYAYSDYDYWGQGTQVTVSS,low polyreactivity
15,QVQLVESGGGLVQAGGSLRLSCAASGSTFAYYAMGWYRQAPGKERELVARIRSSGVSTYYADSVKGRFTISRDNAKNTVYLQMNSLKPEDTAVYYCNKAYSGVRYDSWGQGTQVTVSS,low polyreactivity
16,QVQPVESGGGLVQAGGSLRLSCAASGLTFYRYAMGWYRQAPGKERELVAAISSGSSTYYADSVKGRFTISRDNSKNTVYLQLNILKPEDTAVYYCAARSIDAHGSRYGYWGQGTQVTVSS,high polyreactivity
17,QVQLVESGGGLVQAGGSLRLSCAASGFIFKPNALGWYRQAPGKERELVAAITWGGDNTYYADSVKGRFTISRDNAKNTVYLQMNSLKPEDSAVYYCAAEWKFHSDASYIYDYWGQGTQVTVSS,high polyreactivity
18,QVQLVESGGGLVQAGGSLRLSCAASGRTFTVYAMGWYRQAPGKERELVAAIRRTGSTYYADSVKGRFTISRDNAKNTVYLQMNSLKPEDTAVYYCNAEGSSVLTGYWGYPPYWDTYDYWGQGTQVTVSS,low polyreactivity
19,QVQLVESGGGLVQAGCSLRLSCAASGSTLNSYFMGWYRQAPGKERELVATIRSGSSTNYADSVKGRFTISRDNAKNTVYLQMNILKPEDTAVYYCAADAYSLCYDSWGQGTQVTVSS,low polyreactivity
20,QVQIVESGGGLVQAGGSLRLSCAASGRIFTYNAMGWSRQAPGKERELVAAITRGGTTNYADSVKVRFTISRDNAKNTVYLQMNSLKPEDTAVSYCARAGAHPWWSRSTMYYWGQGTQVTVSS,low polyreactivity
21,QVQLVESGGGLVQAGGSLRLSCAASGRTFYTYAMGWYRQAPGKERELVAAITRRGGSTFYADSVKGRFTISRDNAKNTVYLQMNSLKPEDTAVYYCAARSTVGPQYGVRFNYWGQGTQVTVSS,high polyreactivity
